Measured values from PMC6385203, “Mutations in the palm domain disrupt modulation of acid-sensing ion channel 1a currents by neuropeptides” (Scientific Reports, 2019).
Substitutions are numbered along the chain they refer to. Ends that are not written are not given here.

What was measured:
[1] = biological target: T1, human acid-sensing ion channel 1a, wild type (human) (UniProt P78348)
T1 sequence: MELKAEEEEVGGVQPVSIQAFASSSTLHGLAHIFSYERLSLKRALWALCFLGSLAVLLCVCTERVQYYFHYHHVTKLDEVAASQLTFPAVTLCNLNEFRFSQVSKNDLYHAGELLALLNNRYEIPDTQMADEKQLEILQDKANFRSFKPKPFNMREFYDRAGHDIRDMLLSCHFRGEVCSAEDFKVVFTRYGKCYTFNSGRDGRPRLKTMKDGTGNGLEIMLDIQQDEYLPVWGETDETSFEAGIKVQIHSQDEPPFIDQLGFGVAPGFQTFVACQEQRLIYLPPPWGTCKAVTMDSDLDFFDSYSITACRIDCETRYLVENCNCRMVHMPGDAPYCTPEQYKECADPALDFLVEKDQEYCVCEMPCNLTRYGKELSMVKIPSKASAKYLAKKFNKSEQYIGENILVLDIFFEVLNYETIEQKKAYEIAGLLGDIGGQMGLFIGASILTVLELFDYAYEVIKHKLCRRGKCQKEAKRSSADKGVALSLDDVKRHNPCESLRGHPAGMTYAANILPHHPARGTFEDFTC

[2] = biological target: T2, human ASIC1a F302A (human) (UniProt P78348)
T2 sequence: T1 sequence with F302A

[3] = biological target: T3, human ASIC1a N416C (human) (UniProt P78348)
T3 sequence: T1 sequence with N416C

[4] = biological target: T1, human acid-sensing ion channel 1a, wild type (human); remark: listed apart in the source

EC50 of the induction of a sustained current (I (sust)/I (peak) at pH5) by FRRFa, two-electrode voltage-clamp, Xenopus oocytes [1]: 37 μM
association rate constant kon from the time course of appearance of the sustained current fraction with 50 μM FRRFa pre-applied at pH7.4, two-electrode voltage-clamp [1]: 162 s^−1 M^−1
rate of disappearance of the sustained current after a 50-s incubation with 50 μM FRRFa (rate of unbinding), two-electrode voltage-clamp [1]: 0.025 s⁻¹
EC50 of the FRRFa-mediated sustained current induction, two-electrode voltage-clamp [2]: 11 µM
EC50 of FRRFa for the I (sust)/I (peak) ratio increase at pH5, two-electrode voltage-clamp [3]: 6 μM
koff from the time course of disappearance of the FRRFa-induced sustained current after washout of 50 μM FRRFa [3]: 0.027 s⁻¹
koff from the time course of disappearance of the FRRFa-induced sustained current, WT in the direct comparison with N416C [4]: 0.029
Binder: FRRF-NH2 [FRRFa (Phe-Arg-Arg-Phe-amide)]
